Among the data in article PMC12485084 are percent increase in biotinylation with TurboID-CaM C-lobe versus free TurboID values, retold here.

The target in the experiment is 3xFLAG-TurboID-CaM C-lobe (human). Kind of experiment: proximity labelling.

3xFLAG-WT human TRPA1 (Transient Receptor Potential Ankyrin subtype 1), sequence (O75762 whole entry): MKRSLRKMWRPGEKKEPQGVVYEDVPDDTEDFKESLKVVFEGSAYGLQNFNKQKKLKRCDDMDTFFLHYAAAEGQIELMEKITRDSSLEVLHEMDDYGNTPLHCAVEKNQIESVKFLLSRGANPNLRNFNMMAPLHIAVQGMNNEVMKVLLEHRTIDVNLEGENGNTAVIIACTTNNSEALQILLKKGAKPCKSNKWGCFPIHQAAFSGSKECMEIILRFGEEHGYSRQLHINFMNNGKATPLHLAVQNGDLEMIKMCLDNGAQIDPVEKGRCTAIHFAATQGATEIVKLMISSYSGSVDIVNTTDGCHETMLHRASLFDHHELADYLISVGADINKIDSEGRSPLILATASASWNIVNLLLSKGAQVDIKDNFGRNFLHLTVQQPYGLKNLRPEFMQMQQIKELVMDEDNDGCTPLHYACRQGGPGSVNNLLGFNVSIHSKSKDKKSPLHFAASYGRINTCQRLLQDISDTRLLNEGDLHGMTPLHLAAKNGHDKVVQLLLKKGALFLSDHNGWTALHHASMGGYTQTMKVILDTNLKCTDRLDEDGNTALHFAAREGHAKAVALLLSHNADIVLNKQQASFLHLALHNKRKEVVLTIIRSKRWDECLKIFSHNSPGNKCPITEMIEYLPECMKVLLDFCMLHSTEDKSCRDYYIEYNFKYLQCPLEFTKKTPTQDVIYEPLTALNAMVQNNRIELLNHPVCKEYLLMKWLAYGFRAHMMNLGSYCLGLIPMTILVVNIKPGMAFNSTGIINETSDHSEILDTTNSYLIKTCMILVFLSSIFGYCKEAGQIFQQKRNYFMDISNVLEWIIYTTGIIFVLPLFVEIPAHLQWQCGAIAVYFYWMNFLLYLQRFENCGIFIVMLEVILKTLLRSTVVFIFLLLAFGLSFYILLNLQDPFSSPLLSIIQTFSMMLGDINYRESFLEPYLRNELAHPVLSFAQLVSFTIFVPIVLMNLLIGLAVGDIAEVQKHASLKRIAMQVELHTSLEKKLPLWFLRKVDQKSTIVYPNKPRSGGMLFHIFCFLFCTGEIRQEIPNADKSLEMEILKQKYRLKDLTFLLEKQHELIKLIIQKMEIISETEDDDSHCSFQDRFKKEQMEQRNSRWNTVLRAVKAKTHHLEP

Turning to “3xFLAG-WT human TRPA1 (Transient Receptor Potential Ankyrin subtype 1) (from UniProt O75762 1-1119) (natural protein)”, the percent increase in biotinylation with TurboID-CaM C-lobe versus free TurboID worked out at 40%.
